B1: scFv; the commonest letter at each place (parent)
chain 1: EVKLDETGGGLVQPGRPMKLSCVASGFTFSDYWMNWVRQSPEKGLEWVAQIRNKPYNYETYYSDSVKGRFTISRDDSKSSVYLQMNNLRVEDMGIYYCTGSYYGMDYWGQGTSVTVS
chain 2: DVVMTQTPLSLPVSLGDQASISCRSSQSLVHSNGNTYLRWYLQKPGQSPKVLIYKVSNRFSGVPDRFSGSGSGTDFTLKISRVEAEDLGVYFCSQSTHVPWTFGGGTKLEIK

The variants in the series “fluorescein” derive from B1. In words: Kd (Tite-Seq). Particulars: with fluorescein; format: scFv 4-4-20, heavy + light.
The variants in series [1] derive from B1. In words: yeast surface expression (ratio to wild type); higher = more expressed. Particulars: format: scFv 4-4-20, heavy + light.

We go through 58 variants from the FLAb antibody collection (doi:10.7554/elife.23156).

For orientation: Kd means a measure of binding affinity in units of concentration. As for chain 1 Y103C W108N, in the series with fluorescein, the Kd is 0.495 µM. In series [1], the yeast surface expression stood at 0.227.

Take chain 1 Y102Q Y103E: the Kd with fluorescein is no less than 10 µM. Besides, in series [1], the yeast surface expression worked out at 0.977.

On to chain 1 Y102Q Y103A, for which, in the series with fluorescein, the Kd is 8.13 µM. The yeast surface expression in series [1] is 0.994.

In the case of chain 1 Y102Q Y103T, the Kd with fluorescein was no less than 10 µM. In addition, the yeast surface expression in series [1] was found to be 1.05.

In the case of chain 1 Y102H G104N M105S, in the series with fluorescein, the Kd was no less than 10 µM. The yeast surface expression in series [1] worked out at 1.54.

Take chain 1 Y103C M105G: the Kd in the series with fluorescein was no less than 10 µM. For the same variant, the yeast surface expression in series [1] was 0.611.

Regarding chain 1 Y103C M105L, the Kd in the series with fluorescein is 0.02 µM. For the same variant, in series [1], the yeast surface expression stood at 0.641.

On to chain 1 Y103C M105I, for which the equilibrium dissociation constant (Kd) in the series with fluorescein amounted to 6.27 µM. Further, the yeast surface expression in series [1] was 0.621.

As for chain 1 Y102K M105Y, the Kd in the series with fluorescein stood at 0.0125 µM. Further, the yeast surface expression in series [1] was 0.955.

As to chain 1 Y102K M105N, in the series with fluorescein, the Kd came out at 0.02 µM. In addition, the yeast surface expression in series [1] came out at 0.916.

Regarding chain 1 Y102N M105C, the Kd in the series with fluorescein is no less than 10 µM. Besides, the yeast surface expression in series [1] was found to be 1.22.

Consider chain 1 Y102G Y103D, for which the Kd with fluorescein was no less than 10 µM. Further, in series [1], the yeast surface expression came to 1.29.

Turning to chain 1 Y103C G104C, the equilibrium dissociation constant (Kd) with fluorescein was no less than 10 µM. Also, in series [1], the yeast surface expression was found to be 0.223.

As for chain 1 Y103C G104H, in the series with fluorescein, the Kd is 2.01 µM. The yeast surface expression in series [1] is 0.403.

For the variant chain 1 Y103D G109D, the Kd with fluorescein is no less than 10 µM. Further, the yeast surface expression in series [1] worked out at 0.542.

For chain 1 Y103D G109H, the Kd in the series with fluorescein is no less than 10 µM. In series [1], the yeast surface expression was determined as 0.441.

On to chain 1 Y103D G109R, for which the Kd with fluorescein is no less than 10 µM. Moreover, the yeast surface expression in series [1] was found to be 0.269.

As to chain 1 Y103E W108R, in the series with fluorescein, the Kd was no less than 10 µM. Further, the yeast surface expression in series [1] was 0.463.

With chain 1 Y103E W108D, the Kd with fluorescein is no less than 10 µM. Moreover, in series [1], the yeast surface expression stood at 0.473.

Regarding chain 1 Y103E W108C, in the series with fluorescein, the equilibrium dissociation constant (Kd) stood at 0.0221 µM. In addition, the yeast surface expression in series [1] worked out at 0.758.

Take chain 1 Y103E W108T: in the series with fluorescein, the equilibrium dissociation constant (Kd) amounted to 0.0171 µM. Besides, the yeast surface expression in series [1] was 1.01.

Take chain 1 Y103E W108N: the Kd with fluorescein is no less than 10 µM. Also, in series [1], the yeast surface expression is 0.446.

On to chain 1 Y103E W108I, for which the dissociation constant (Kd) with fluorescein is 0.004 µM. For the same variant, the yeast surface expression in series [1] worked out at 1.12.

Take chain 1 Y103E Y107V: the Kd in the series with fluorescein is no less than 10 µM. The yeast surface expression in series [1] is 1.07.

For chain 1 Y103I G109V, in the series with fluorescein, the equilibrium dissociation constant (Kd) was no less than 10 µM. The yeast surface expression in series [1] is 0.222.

As for chain 1 Y102R M105A, the Kd in the series with fluorescein worked out at 8.56 µM. Moreover, in series [1], the yeast surface expression came to 1.1.

Regarding chain 1 Y102R M105G, in the series with fluorescein, the dissociation constant Kd is no less than 10 µM. Further, the yeast surface expression in series [1] came out at 0.754.

In the case of chain 1 Y102R M105N, the Kd in the series with fluorescein worked out at 0.0318 µM. In addition, the yeast surface expression in series [1] was 0.764.

For chain 1 Y102Q G109D, the equilibrium dissociation constant (Kd) with fluorescein was no less than 10 µM. The yeast surface expression in series [1] turned out to be 0.485.

Take chain 1 Y103C G109Y: the Kd in the series with fluorescein is no less than 10 µM. For the same variant, the yeast surface expression in series [1] turned out to be 0.494.

Regarding chain 1 Y103C G109A, the Kd with fluorescein was no less than 10 µM. For the same variant, the yeast surface expression in series [1] is 0.397.

Consider chain 1 Y103C G109D, for which, in the series with fluorescein, the Kd was no less than 10 µM. Besides, in series [1], the yeast surface expression is 0.356.

Regarding chain 1 Y102R G109L, in the series with fluorescein, the dissociation constant Kd was no less than 10 µM. The yeast surface expression in series [1] was 0.279.

With chain 1 Y102N Y103C, the Kd with fluorescein was 4.14 µM. For the same variant, the yeast surface expression in series [1] was determined as 0.692.

Consider chain 1 Y102H G104F W108Y, for which, in the series with fluorescein, the Kd is no less than 10 µM. In series [1], the yeast surface expression worked out at 0.283.

chain 1 Y103G W108F: the equilibrium dissociation constant (Kd) with fluorescein came to 0.00194 µM. In addition, in series [1], the yeast surface expression was 1.06.

Consider chain 1 Y102I Y103W, for which the Kd with fluorescein was 0.0015 µM. Also, in series [1], the yeast surface expression turned out to be 1.15.

With chain 1 Y102Q G104T, the dissociation constant (Kd) with fluorescein was no less than 10 µM. The yeast surface expression in series [1] worked out at 0.546.

With chain 1 Y102Q G104H, in the series with fluorescein, the Kd was no less than 10 µM. For the same variant, the yeast surface expression in series [1] was determined as 0.672.

As for chain 1 Y102Q G104L, the equilibrium dissociation constant (Kd) in the series with fluorescein is no less than 10 µM. For the same variant, the yeast surface expression in series [1] was 0.667.

For the variant chain 1 Y103I D106L, in the series with fluorescein, the dissociation constant Kd was no less than 10 µM. Also, the yeast surface expression in series [1] worked out at 0.354.

chain 1 Y103I D106W: the Kd with fluorescein is no less than 10 µM. Also, the yeast surface expression in series [1] was 0.188.

Turning to chain 1 Y103I D106Q, the Kd in the series with fluorescein was no less than 10 µM. The yeast surface expression in series [1] stood at 0.516.

For chain 1 Y103I D106A, the Kd in the series with fluorescein is no less than 10 µM. The yeast surface expression in series [1] came out at 0.489.

As to chain 1 Y102V M105Q, the Kd with fluorescein is 1.63 µM. In addition, the yeast surface expression in series [1] was found to be 0.736.

Regarding chain 1 Y102V M105N, the Kd with fluorescein worked out at 0.522 µM. The yeast surface expression in series [1] stood at 1.01.

As to chain 1 Y102T M105K, in the series with fluorescein, the Kd is 0.00708 µM. Also, the yeast surface expression in series [1] was found to be 0.849.

In the case of chain 1 Y102V G104N, the Kd with fluorescein is no less than 10 µM. In series [1], the yeast surface expression was 0.817.

In the case of chain 1 Y102V G104K, the Kd with fluorescein is no less than 10 µM. The yeast surface expression in series [1] came to 0.494.

Consider chain 1 Y102S W108T, for which the equilibrium dissociation constant (Kd) with fluorescein is no more than 0.000316 µM. For the same variant, in series [1], the yeast surface expression is 0.599.

For chain 1 Y102H Y107F G109K, the Kd with fluorescein was no less than 10 µM. For the same variant, the yeast surface expression in series [1] came to 0.242.

As to chain 1 Y103I G104P G109M, the dissociation constant (Kd) in the series with fluorescein was no less than 10 µM. Moreover, in series [1], the yeast surface expression amounted to 0.279.

chain 1 Y102W M105E: the dissociation constant (Kd) with fluorescein turned out to be 5.96 µM. In addition, in series [1], the yeast surface expression amounted to 1.02.

In the case of chain 1 Y102G G104H, the Kd in the series with fluorescein is no less than 10 µM. For the same variant, in series [1], the yeast surface expression stood at 1.06.

With chain 1 Y102G G104L, the Kd in the series with fluorescein is no less than 10 µM. In series [1], the yeast surface expression was found to be 0.816.

With chain 1 Y102G G104F, in the series with fluorescein, the dissociation constant (Kd) is no less than 10 µM. In series [1], the yeast surface expression stood at 0.545.

As to chain 1 Y102M Y103T, in the series with fluorescein, the Kd is no less than 10 µM. In addition, the yeast surface expression in series [1] stood at 0.766.

On to chain 1 Y102M Y103E, for which the Kd with fluorescein was no less than 10 µM. In addition, the yeast surface expression in series [1] was determined as 1.26.
